Patent US7994133B2, “Isozyme-specific antagonists of protein kinase C” (The Board of Trustees of the Leland Stanford Junior …, priority 2003, dated 2011)
Changes are numbered by the printed parent chain. Each block holds one molecule with its values, some of them ahead of it.

Experiments:
GST-εRACK = target: T1, GST-εRACK (Homo sapiens, UniProt P35606); experiment: εRACK binding assay; conditions: for change of binding to εRACK in the presence of PL: with versus without phosphatidylserine and Sn-1,2 dioleoylglycerol
T1 construct: made in house; host or cells: Hi5 insect cells (baculovirus made in Sf9)
T1 sequence (P35606 2-906 limits assumed): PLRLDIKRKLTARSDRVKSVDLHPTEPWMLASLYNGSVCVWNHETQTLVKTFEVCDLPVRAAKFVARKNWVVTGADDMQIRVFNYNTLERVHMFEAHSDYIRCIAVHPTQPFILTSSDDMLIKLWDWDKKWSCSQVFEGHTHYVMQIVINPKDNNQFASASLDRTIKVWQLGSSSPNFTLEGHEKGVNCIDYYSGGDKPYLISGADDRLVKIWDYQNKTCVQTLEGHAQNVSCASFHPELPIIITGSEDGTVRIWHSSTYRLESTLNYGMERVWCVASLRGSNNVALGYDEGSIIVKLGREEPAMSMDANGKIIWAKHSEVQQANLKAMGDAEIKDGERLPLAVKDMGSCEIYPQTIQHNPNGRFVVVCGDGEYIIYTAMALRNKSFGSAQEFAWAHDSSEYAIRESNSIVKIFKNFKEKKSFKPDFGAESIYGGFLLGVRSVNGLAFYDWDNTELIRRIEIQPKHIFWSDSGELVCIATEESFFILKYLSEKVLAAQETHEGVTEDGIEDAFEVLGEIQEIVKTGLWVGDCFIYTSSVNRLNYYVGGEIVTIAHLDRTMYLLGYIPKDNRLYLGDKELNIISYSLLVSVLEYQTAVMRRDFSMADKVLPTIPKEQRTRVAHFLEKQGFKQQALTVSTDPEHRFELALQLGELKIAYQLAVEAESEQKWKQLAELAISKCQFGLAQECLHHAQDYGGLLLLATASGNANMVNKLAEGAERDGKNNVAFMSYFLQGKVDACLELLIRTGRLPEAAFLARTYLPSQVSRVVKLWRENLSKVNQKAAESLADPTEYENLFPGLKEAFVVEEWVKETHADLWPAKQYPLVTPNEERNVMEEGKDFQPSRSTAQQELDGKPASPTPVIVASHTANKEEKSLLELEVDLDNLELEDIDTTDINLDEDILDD
Method: RACKs bind active PKC [Mochly-Rosen, D. & Gordon, A. S., FASEB J. 12:35-42 (1998); Mochly-Rosen, D. et al., Molec. Biol. Cell. (formerly Cell Regulation) 1:693-706 (1990).
Insect cells expressing either εPKC or GST-εRACK were lysed as described in Example 4. GST-εRACK, […] was immobilized on Glutathion-Sepharose 4B beads (Amersham-Pharmacia), and washed thoroughly with wash buffer (20 mM Tris-HCl pH 7.5, 2 mM EDTA, 100 mM NaCl, 12 mM βME, and 0.1% TritonX-100). Immobilized GST-εRACK was then incubated with the soluble fraction of insect cell lysates containing 100 ng Wt, D(86)A, or D(86)N εPKC protein, in the presence or absence of phospholipid activators (PL) (phosphatidylserine 12 μg/reaction and, Sn-1,2 dioleoylglycerol 400 ng/reaction) for 1 hour at 4° C. Upon thorough washing with wash buffer, bound proteins were eluted in SDS-PAGE sample buffer and proteins separated on 8% SDS-PAGE gels. The amount of εPKC interacting with εRACK was determined by Western blot probing for εPKC with anti εPKC-V5 antibodies. Blots were then re-probed with ant-GST (Santa Cruz) to verify that the same amount of GST-εRACK was present in each binding assay. All other methods for this Example were performed as described, for example, in Example 4.

[1] = Fluorescence recovery after photobleaching (FRAP) of cytoplasmic εPKCs; format: cell-based; conditions: average of at least 10 cells
Method: CHO cells were grown on glass coverslips, and serum-starved as described in Example 4. For each experiment, cells were transferred to a commercially available metal coverslip holder (Molecular Probes) in which the coverslip formed the bottom of a 1 ml bath. The media was then replaced with extracellular buffer (120 mM NaCl, 5 mM KCl, 1.5 mM CaCl2, 1.5 mM MgCl2, 20 mM HEPES and 30 mM glucose). Cells were stimulated by either PMA (100 nM), or with ATP (1 mM) in extracellular buffer. Fluorescence images of GFP-tagged constructs were obtained using the 488 nm excitation line of a laser scanning confocal microscope (Pascal, Zeiss) and emission was collected through a 505-550 nm band pass filter. Cells were imaged on the stage of an inverted microscope (Axiovert 100M) using a 40× Zeiss Plan-apo oil immersion objective with 1.2 numerical aperture (NA). For dual color imaging of CFP and YFP fusion proteins, a spinning disk Nipkow confocal microscope was used. Cells were viewed using an inverted Olympus IX70 microscope with a 40× oil immersion Olympus objective (1.35NA) and images were acquired with a CCD camera (Hamamatsu) and 2×2 pixel binning. […] Under these conditions, and by placing an iris in the beam path, it was possible to bleach 80% of the YFP fluorescence in 500 ms in an area of the cytosol measuring approximately 35 um2. […] Images were exported as 12 or 16 bit files and changes in fluorescence intensity were measured using MetaMorph® data analysis software (Universal Imaging Corp.). To monitor the translocation of PKC, a small region of interest was selected in the cytosol of each cell and fluorescence intensity values graphed against time after subtraction of background values and normalized so that the initial fluorescence was 100%. […]
Different translocation rates may reflect differences in overall mobility (diffusion) of the εPKCs in cells. Therefore, fluorescence recovery after photobleaching (FRAP) of the cytoplasmic enzyme was measured; mobility of εPKCs was measured by monitoring the time required for the fluorescence to recover in a bleached region. […]

binding to εRACK relative to D(86)N or Wt (GST-εRACK; absence of PL activators): at least two fold greater
change of binding to εRACK in the presence of PL (GST-εRACK): not increased
B1: D(86)A: εPKC mutant wherein D at position 86 of ΨεRACK on εPKC is substituted with an A (protein)
chain: MVVFNGLLKIKICEAVSLKPTAWSLRHAVGPRPATFLLDPYIALNVDDSRIGQTATKQKTNSPAWHDEFVTDVCNGRKIELAVFHAAPIGYDDFVANCTIQFEELLQNGSRHFEDWIDLEPEGRVYVIIDLSGSSGEAPKDNEERVFRERMRPRKRQGAVRRRVHQVNGHKFMATYLRQPTYCSHCRDFIWGVIGKQGYQCQVCTCVVHKRCHELIITKCAGLKKQETPDQVGSQRFSVNMPHKFGIHNYKVPTFCDHCGSLLWGLLRQGLQCKVCKMNVHRRCETNVAPNCGVDARGIAKVLADLGVTPDKITNSGQRRKKLIAGAESPQPASGGSPSEEDRSKSAPTSPCDQEIKELENNIRKALSFDNRGEEHRAASSPDGQLMSPGENGEVRQGQAKRLGLDEFNFIKVLGKGSFGKVMLAELKGKDEVYAVKVLKKDVILQDDDVDCTMTEKRILALARKHPYLTQLYCCFQTKDRLFFVMEYVNGGDLMFQIQRSRKFDEPRSRFYAAEVTSALMFLHQHGVIYRDLKLDNILLDAEGHCKLADFGMCKEGILNGVTTTTFCGTPDYIAPEILQELEYGPSVDWWALGVLMYEMMAGQPPFEADNEDDLFESILHDDVLYPVWLSKEAVSILKAFMTKNPHKRLGCVASQNGEDAIKQHPFFKEIDWVLLEQKKIKPPFKPRIKTKRDVNNFDQDFTREEPVLTLVDEAIVKQINQEEFKGFSYFGEDLMP
time to fifty percent FRAP [1]: 9.2 ± 1.1 s

εRACK binding compared with D(86)A or Wt (GST-εRACK; presence of an equal concentration of PL): less εRACK binding
change of binding to εRACK in the presence of PL (GST-εRACK): significantly increased
B2: D(86)N: εPKC mutant wherein D at position 86 of ΨεRACK in εPKC is substituted with an N (protein)
chain: B1 chain with A86N
time to fifty percent FRAP [1]: 9.1 ± 1.6 s

change of binding to εRACK in the presence of PL (GST-εRACK): significantly increased
B3: Wt: wild type εPKC, human construct (protein)
chain: B1 chain with A86D
time to fifty percent FRAP [1]: 9.0 ± 1.2 s
